Data from patent US20240309103A1 (Regeneron, published 2024).

What was measured:
[1] = biological target: T1, human NPR1 extracellular domain expressed with a C-terminal mouse IgG2a (hNPR1-mFc) (human); experiment: SPR, mAb captured, 37 C
T1 construct: also called hNPR1-Fc; human NPR1 dimer
T1 chain: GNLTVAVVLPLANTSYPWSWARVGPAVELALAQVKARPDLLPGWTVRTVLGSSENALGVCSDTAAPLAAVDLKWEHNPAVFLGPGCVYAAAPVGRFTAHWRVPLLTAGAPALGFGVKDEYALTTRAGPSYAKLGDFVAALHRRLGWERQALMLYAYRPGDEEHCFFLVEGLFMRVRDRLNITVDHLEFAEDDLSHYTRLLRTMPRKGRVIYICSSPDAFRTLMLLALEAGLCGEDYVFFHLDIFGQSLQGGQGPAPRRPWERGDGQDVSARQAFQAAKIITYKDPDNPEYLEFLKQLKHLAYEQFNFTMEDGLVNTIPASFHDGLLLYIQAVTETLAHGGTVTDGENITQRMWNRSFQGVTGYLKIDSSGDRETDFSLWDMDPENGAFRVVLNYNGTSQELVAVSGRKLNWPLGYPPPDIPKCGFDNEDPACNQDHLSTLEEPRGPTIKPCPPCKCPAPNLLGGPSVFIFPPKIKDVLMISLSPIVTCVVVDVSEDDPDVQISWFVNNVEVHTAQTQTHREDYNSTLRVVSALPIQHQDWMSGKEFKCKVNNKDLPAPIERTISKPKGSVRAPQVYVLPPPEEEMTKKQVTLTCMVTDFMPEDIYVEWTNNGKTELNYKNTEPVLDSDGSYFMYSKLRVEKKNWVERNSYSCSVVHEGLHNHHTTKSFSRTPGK
Description: (§1) Equilibrium dissociation constant (KD) for different NPR1 reagents binding to purified anti-NPR1 monoclonal antibodies (mAbs) were determined using a real-time surface plasmon resonance based Biacore 4000 biosensor. All binding studies were performed in 10 mM HEPES, 150 mM NaCl, 3 mM EDTA, and 0.05% v/v Surfactant Tween-20, pH 7.4 (HBS-ET) running buffer at 25° C. and 37° C. The Biacore CM5 sensor chip surface was first derivatized by amine coupling with either mouse anti-human Fc specific mAb (GE Healthcare, #BR100839) or goat anti-human Fcy specific polyclonal antibody (Jackson ImmunoResearch Laboratories, #BR-1008-39) to capture anti-NPR1 mAbs.

[2] = biological target: T2, monkey NPR1 extracellular domain expressed with a C-terminal myc-myc-hexahistidine (mfNPR1-MMH) (monkey, UniProt P16066 33-473 (human entry)); experiment: SPR, mAb captured, 37 C
T2 construct: also called monomeric monkey NPR1
T2 chain: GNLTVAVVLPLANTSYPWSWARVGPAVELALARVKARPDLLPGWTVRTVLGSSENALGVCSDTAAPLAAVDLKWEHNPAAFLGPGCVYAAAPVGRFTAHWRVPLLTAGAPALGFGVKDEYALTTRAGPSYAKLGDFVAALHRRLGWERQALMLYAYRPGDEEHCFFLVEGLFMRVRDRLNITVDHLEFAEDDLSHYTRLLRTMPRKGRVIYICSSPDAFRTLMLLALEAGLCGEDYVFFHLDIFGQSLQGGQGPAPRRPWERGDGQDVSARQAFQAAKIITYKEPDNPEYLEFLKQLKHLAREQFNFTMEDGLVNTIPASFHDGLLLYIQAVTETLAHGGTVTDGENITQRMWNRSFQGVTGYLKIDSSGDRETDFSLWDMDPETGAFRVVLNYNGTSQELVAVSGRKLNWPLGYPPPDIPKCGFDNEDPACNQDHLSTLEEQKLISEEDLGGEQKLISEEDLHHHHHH
Description: as §1

[3] = biological target: T3, mouse NPR1 extracellular domain expressed with a C-terminal myc-myc-hexahistidine (mNPR1-MMH) (mouse, UniProt P18293 29-469); experiment: SPR, mAb captured, 37 C
Description: as §1

[4] = biological target: T4, mouse NPR1 extracellular domain expressed with a C-terminal mouse IgG2a (mNPR1-mFc) (mouse); experiment: SPR, Tables 21 to 26
T4 chain: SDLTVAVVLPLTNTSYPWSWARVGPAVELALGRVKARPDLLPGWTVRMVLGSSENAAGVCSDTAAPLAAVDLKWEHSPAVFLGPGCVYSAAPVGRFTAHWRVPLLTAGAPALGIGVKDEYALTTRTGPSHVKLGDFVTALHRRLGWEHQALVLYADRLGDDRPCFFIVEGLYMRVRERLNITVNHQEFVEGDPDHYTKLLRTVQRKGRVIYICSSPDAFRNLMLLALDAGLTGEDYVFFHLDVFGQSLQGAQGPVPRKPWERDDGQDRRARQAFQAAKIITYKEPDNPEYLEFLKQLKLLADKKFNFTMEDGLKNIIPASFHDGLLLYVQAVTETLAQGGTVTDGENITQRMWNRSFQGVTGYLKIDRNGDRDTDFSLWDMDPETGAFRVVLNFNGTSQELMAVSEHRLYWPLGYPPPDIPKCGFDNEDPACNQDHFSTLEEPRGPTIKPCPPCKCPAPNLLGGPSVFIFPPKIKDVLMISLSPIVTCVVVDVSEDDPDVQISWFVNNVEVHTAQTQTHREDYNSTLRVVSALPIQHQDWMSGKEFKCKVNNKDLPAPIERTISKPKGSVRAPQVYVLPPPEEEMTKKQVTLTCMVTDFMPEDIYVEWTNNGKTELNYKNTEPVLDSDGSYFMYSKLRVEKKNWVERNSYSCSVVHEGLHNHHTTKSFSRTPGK
Description: as §1

[5] = biological target: T1, human NPR1 extracellular domain …; experiment: SPR, mAb captured, 25 C
Description: as §1

[6] = biological target: T2, monkey NPR1 extracellular domain …; experiment: SPR, mAb captured, 25 C
Description: as §1

[7] = biological target: T3, mouse NPR1 extracellular domain …; experiment: SPR, mAb captured, 25 C
Description: as §1

B1: mAb25545 (antibody, V domains shown)
VH: QVQLVESGGGLVKPGGSLRLSCAASGFTFSDYHLSWIRQAPGKGLEWVSYIRSSGRTIDYAASVKGRFTISRDNAKNSLYLQMNSLRVEDTAVYYCARENWIVLKVYAGIVGAPLDQWGQGTLVTVSS
VL: not shown
With B1 the “100 nM Ag Bound (RU)” value [1] was 15 RU, the “100 nM Ag Bound (RU)” value [2] was 10 RU and the “100 nM Ag Bound (RU)” value [3] was 1 RU. For the same binder, the binding result [4] was “no binding”, the “100 nM Ag Bound (RU)” value [5] was 7 RU and the “100 nM Ag Bound (RU)” value [6] was 4 RU. For the same binder, the “100 nM Ag Bound (RU)” value [7] was 0 RU and the binding result [7] was “no binding (tested: 100 nM)”.
